T1: bacterial ribosomal protein bS1, M. smegmatis (M. smegmatis, UniProt A0QYY6 1-479)
T1 construct: ribosomal protein bS1 of M. smegmatis; only the two N-terminal domains OB1 and OB2 are visible in the map, the rest is disordered; Stood in the assay as a part of the 70S ribosome; the model was begun from AlphaFold2 and docked in the map; also called bS1 r-protein; source: endogenous, in ribosomes purified from M. smegmatis MC2 155
T1 sequence (looked up): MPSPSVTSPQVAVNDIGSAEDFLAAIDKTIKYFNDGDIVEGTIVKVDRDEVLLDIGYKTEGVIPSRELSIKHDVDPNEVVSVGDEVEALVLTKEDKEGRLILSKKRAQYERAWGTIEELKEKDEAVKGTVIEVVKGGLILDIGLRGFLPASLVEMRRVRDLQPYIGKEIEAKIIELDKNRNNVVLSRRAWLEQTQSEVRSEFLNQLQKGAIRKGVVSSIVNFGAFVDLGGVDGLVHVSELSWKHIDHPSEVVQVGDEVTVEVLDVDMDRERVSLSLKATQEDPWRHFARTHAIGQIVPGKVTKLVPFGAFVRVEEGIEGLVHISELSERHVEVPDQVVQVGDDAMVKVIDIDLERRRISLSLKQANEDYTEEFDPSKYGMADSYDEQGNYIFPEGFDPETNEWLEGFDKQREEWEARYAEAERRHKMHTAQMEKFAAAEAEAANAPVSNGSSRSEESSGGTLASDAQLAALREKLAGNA

B1: RafH (ribosome associated factor under hypoxia), M. smegmatis (natural protein, UniProt A0QZ86 1-258, looked up)
chain: MDVDVSTDGELPGAAEYAREKIGRLSRRAHRPVLHARVRLTRHGDPAVERPVIAQANLDVNGRQVRAQVEGVNAREAVDRLEARLRSRLERIAEHWEARRGGVPAEAGREWRHESEPARRPGYFPRPPEERRIIRRKSFSMVPCTVDEAALEMEMLDYDFHLFTEKGTGFAAVLYKGGPTGYRLVLVIPVPADELSPFEKPITISTHPAPCLTQRDAVERLGLLGLPFLFYIDAAEGRASVIYRRYDGHYGLITPADG
notes: RafH of M. smegmatis, gene MSMEG_3935, 258 amino acid residues (~30 kDa): NTD 1-100, linker 101-130, CTD 131-258; gene synthesised (GenScript) and cloned in pET-28a(+); the methods say only that the gene MSMEG_3935 was cloned; also called MSMEG_3935; source: E. coli C41(DE3), purified (Ni-NTA, size-exclusion chromatography)

Legend:
[1] = biological target: B1; assay: cryo-EM structure; single particle cryo-EM of the in-vitro reconstituted 70S ribosome RafH complex (Titan Krios 300 kV, Falcon 3, Relion 3.1.4); overall 2.8 Å; maps with bS1 or E-site tRNA low pass filtered to 3.5 Å; conditions: both partners purified
[2] = biological target: T1, bacterial ribosomal protein bS1, M. …; assay: as above; conditions: both partners purified

binding result [1] | binding result [2] | Binder
binds | – | ribosomal protein uS11, M. smegmatis (natural protein, ribosomal protein uS11 of M. smegmatis; Stood in the assay as a part of the 70S ribosome; also called uS11 r-protein; source: endogenous, in ribosomes purified from M. smegmatis MC2 155) not shown
binds | – | ribosomal protein uS9, M. smegmatis (natural protein, UniProt A0QSP9 1-150, looked up, ribosomal protein uS9 of M. smegmatis; C-terminal residue R150; Stood in the assay as a part of the 70S ribosome; also called r-protein uS9; source: endogenous, in ribosomes purified from M. smegmatis MC2 155) MTDVTETEVVTESAEPREPVIIDRPIQTVGRRKEAVVRVRLVPGTGQFNLDGRTLENYFPNKVHQQLIKAPLVTVDRVDQFDIYAHLDGGGPSGQAGALRLAIARALILVQPEDRPALKKAGFLTRDPRAIERKKYGLKKARKAPQYSKR
– | binds | ribosomal protein uS2, M. smegmatis (natural protein, UniProt A0QVB8 1-277, looked up, ribosomal protein uS2 of M. smegmatis; Stood in the assay as a part of the 70S ribosome; also called uS2 r-protein; source: endogenous, in ribosomes purified from M. smegmatis MC2 155) MAVVTMKQLLDSGAHFGHQTRRWNPKMKRFIFTDRNGIYIIDLQQTLTYIDKAYEFVKETVAHGGTVLFVGTKKQAQESIAEEATRVGMPYVNQRWLGGMLTNFSTVHKRLQRLKELEAMEQTGGFEGRTKKEILMLTREKNKLERSLGGIRDMQKVPSAVWVVDTNKEHIAVGEARKLGIPVIAILDTNCDPDVVDYPIPGNDDAIRSAALLTKVIASAVAEGLQARAGQGSGEKPAEGAEPLAEWEQELLAGATAGAADASAEGAAAPESSTDAS
– | binds | B1
